Molecular target: human BimEL (Bcl-2-Interacting Mediator of cell death, Extra Long isoform)

B1: human RSK1 (p90rsk/MAPKAP kinase-1) (protein)
chain: MEQDPKPPRLRLWALIPWLPRKQRPRISQTSLPVPGPGSGPQRDSDEGVLKEISITHHVKAGSEKADPSHFELLKVLGQGSFGKVFLVRKVTRPDSGHLYAMKVLKKATLKVRDRVRTKMERDILADVNHPFVVKLHYAFQTEGKLYLILDFLRGGDLFTRLSKEVMFTEEDVKFYLAELALGLDHLHSLGIIYRDLKPENILLDEEGHIKLTDFGLSKEAIDHEKKAYSFCGTVEYMAPEVVNRQGHSHSADWWSYGVLMFEMLTGSLPFQGKDRKETMTLILKAKLGMPQFLSTEAQSLLRALFKRNPANRLGSGPDGAEEIKRHVFYSTIDWNKLYRREIKPPFKPAVAQPDDTFYFDTEFTSRTPKDSPGIPPSAGAHQLFRGFSFVATGLMEDDGKPRAPQAPLHSVVQQLHGKNLVFSDGYVVKETIGVGSYSECKRCVHKATNMEYAVKVIDKSKRDPSEEIEILLRYGQHPNIITLKDVYDDGKHVYLVTELMRGGELLDKILRQKFFSEREASFVLHTIGKTVEYLHSQGVVHRDLKPSNILYVDESGNPECLRICDFGFAKQLRAENGLLMTPCYTANFVAPEVLKRQGYDEGCDIWSLGILLYTMLAGYTPFANGPSDTPEEILTRIGSGKFTLSGGNWNTVSETAKDLVSKMLHVDPHQRLTAKQVLQHPWVTQKDKLPQSQLSHQDLQLVKGAMAATYSALNSSKPTPQLKPIESSILAQRRVRKLPSTTL
Question: With B1 as the protein, how does the “in vitro kinase assay: phosphorylation of BimEL on serines 93/94/98” value read?
Answer: RSK1 phosphorylates BimEL in vitro on serines 93/94/98 (the degron serines)

Source: patent publication US20090318535
